For one molecule, S/N ratio results are on record in patent US20150276749A1 (KONICA MINOLTA, published 2015).

The target of the assay is T1, soluble-type human DSG3-mouse IgG2aFc fusion protein (human; mouse, UniProt P32926 50-616).
T1 construct: also called human desmoglein 3; desmoglein 3 standard; not shown: mouse IgG2a Fc, printed 'mouse IgG2aFc' and 'mouse IgG2 constant region'
T1 sequence: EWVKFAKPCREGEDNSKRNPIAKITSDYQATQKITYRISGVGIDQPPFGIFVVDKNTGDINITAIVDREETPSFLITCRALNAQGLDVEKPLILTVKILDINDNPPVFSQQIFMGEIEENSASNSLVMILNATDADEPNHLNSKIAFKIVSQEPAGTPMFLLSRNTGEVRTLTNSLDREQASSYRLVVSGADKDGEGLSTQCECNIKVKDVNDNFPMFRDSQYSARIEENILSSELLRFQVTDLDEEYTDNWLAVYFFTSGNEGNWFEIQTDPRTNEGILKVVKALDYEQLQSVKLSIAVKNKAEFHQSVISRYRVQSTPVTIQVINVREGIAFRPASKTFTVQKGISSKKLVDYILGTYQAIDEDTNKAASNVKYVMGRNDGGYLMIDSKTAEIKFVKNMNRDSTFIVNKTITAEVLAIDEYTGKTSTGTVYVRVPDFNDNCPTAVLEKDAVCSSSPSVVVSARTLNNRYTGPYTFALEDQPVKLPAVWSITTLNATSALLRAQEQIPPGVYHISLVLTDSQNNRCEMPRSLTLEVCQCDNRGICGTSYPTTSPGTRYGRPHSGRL
Nature of the assay: sandwich ELISA, luminescence over blank; immobilized DF151, detection MAB1720; antigen 25000 pg/mL. As to the method: Subsequently, the antigen solutions having the above-described concentrations were each added to the plate in an amount of 50 μL/well, and the plate was incubated at room temperature for 1 hour. Then, the antigen solution was removed, and the plate was washed with 0.05% Tween 20-PBS three times. Thereafter, the 1-μg/mL biotinylated antibody solution was added in an amount of 50 μL/well, and the plate was incubated at room temperature for 1 hour.
Then, after removing the streptavidin-HRP solution and washing the plate with 0.05% Tween 20-PBS three times, a substrate solution (SuperSignal ELISA Femto Maximum Sensitivity Substrate (registered trademark); Pierce Biotechnology, Inc.) was added in an amount of 100 μL/well. One minute thereafter, the luminescence intensity was measured using a luminometer, Fluoroskan Ascent FL (trade name, Thermo Electron Corporation).
The numerical values shown in Table 1 represent the minimum values of the antigen solution concentration having an S/N ratio of higher than 2 (hereinafter, referred to as “detection limit concentration”) and the unit of the numerical values is pg/mL. The S/N ratio was determined by dividing the luminescence intensity at the respective antigen solution concentrations ([…]) by the luminescence intensity of an antigen-free blank antigen solution (0 μg/mL).

B1: DF151 (DF151[I] antibody) (antibody, mouse IgG2b, kappa, V domains shown)
VH: EVQLQQSGPELVKPGASVKISCKASGYSFTAYYMHWVKQSPEKCLEWIGQINPSTGGTTYNQKFKAKATLTVDKSSSTAYMQLKSLTSEDSAVYYCARWGDSWGQGTTLTVSS
VL: DIVLTQSPASLAVSLGQSVTISCRASESVEYYGTSLMQWYQQKPGQPPKLLIYGASDVESGVPARFSGSGSGTDFSLNIHPVEEDDIAMYFCQQSRKVPYTFGSGTKLEIKR
notes: Complete antibody; Biotinylated as detection antibody in ELISA; labeled with Alexa Fluor 647 as detection antibody in SPFS; also called DF151 antibody
With B1, the S/N ratio turned out to be 82.2.
